Results as given in the nanobody polyreactivity screen of Harvey et al. (2022).

Experiment: yeast display, Sf9 membrane polyspecificity reagent, FACS + sequencing; frameworks hold sequencing errors
Summary of the method: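 Synthetic nanobody libraries on Saccharomyces cerevisiae BJ5465 were galactose-induced for 36–48 hours, stained 1 hour at 4 °C with 10% biotinylated, detergent-solubilized Sf9 membrane reagent and enriched on streptavidin microbeads. FACS then separated cells into low and high (top ~1%) gates by anti-HA (expression) and streptavidin (reagent binding) fluorescence. Genes were colony-PCR amplified, MiSeq 2 × 250 sequenced and CDR-length filtered. A clone's polyreactivity label is that of its gate of origin.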

Sequence | polyreactivity (PSR sort gate)
QVQLVESGGGLVQAGGSLRLSCAASGSTFQVYAMGLYRQAPGKERELVASITSGGSTYADSVKGRFTISRDNAKNTVYLQINSLKPEDTAVYYCAAGGYFYPYTYDYWGQGTQVTVSS | low polyreactivity
QVQLVESGGGLVHAGGSLRLSCAASGITSPYSMGWYRQSPGKERELVAAISSGASTYYADTVKGRFTISRDNAKNTVYLQMNSLKPEVTAVYYCNRVTKRYPNIGNYWGQGTQVTLSS | high polyreactivity
QVQLVESGGGLVQAGGSLRLSCAPSGRTFNYNAMGWYRQAPGKERELVAAITSSGGGTSYADSVKGRFTISRDNAKNTVYFQMNSLKPYYTAVYYCAAEVDRGKYCSTYRGGDYCGQGTQVTVSS | high polyreactivity
QVQVVESGGGLVQAGGSLRLSCAASGRTFNPNVMGWYRQAPGKERELVAAISRGGSTYYADSVKGLFTISRDNAKNTVYLQMNSLKPEDTAVYYCAATHYGHSISNWFDYWGQGTQVTVSS | high polyreactivity
QVQLVESGGGLVQAGGSLRLSCPASGRIFYPYPKGWYRQAPGKERELVATITRTGSTYYADSVKGRFTITRDNAKNTVYVQMNSLKPEDPAVYYCAVQRSYVGPRQYNYWGQGTQVTVSS | high polyreactivity
QVQLVESGGGLEQAGGRLRLICAASGRTFDRYPMGWYRQAPGKESELVAAITWSGGRTYYADSVKGRFTISRDNAKNTVYLQMNSLKPEDTAVYYCAADNSYRGYHSPYEYWGQGTQVTVSS | low polyreactivity
QVQLVESGGGLVQAGGSLRLSCAASGSIFDGNAMVSYRQAPGKDRELVADISRGGSTYYADSVKGPFTISRDNAKNTVYLQMNSLTPEDTAVYYCNVEFFFWPYEYGYWGQGTQVTVSS | low polyreactivity
QVQLVESGGGLVQAGGSLRLSCAASGSTLRRNAMGWYRQAPGKERELVAAITGSRGSTFYADSVKGRFTISRDNAKNTVYLQMNSLKPEDTAVYYCAVYKWSTRVSQYRYDYWGQGTQVTVSS | high polyreactivity
QVQLVESGGGLVQAGGSLLLSCAASGSIYSYYAMGWYRQAPGKERELVAAISQSGGTTYYADSVKGRFTISRDNAKNTVYLQMNSLKPEDTAVYYCAARATSSFDTQYYYWGQGTQVTVSS | low polyreactivity
QVQLVESGGGLVQAGGSLRLSCAASGRILRDYDMGWYRQATGKERELVAAINWSDGSTYYADSVKGRFTISRDNAKNTVYLQMNSLKPEDTAVYYCAASRWRPLERGTTWLNDYWGQGTQVTVSS | low polyreactivity
QVQLVESGGGLVQAGGSLRISSAASGSITPYYTMGWYRQAPGKERELVATITSGGNTYYADSVKGRFTISRDNAQNTVYLQLNSVKPEDTAVYYCAAEGVWGIFDYWGKGTQVTVSS | low polyreactivity
QVQLVESGGGLVQAGGSLRLSCAASGRIFGWYAMGWSRQAPGKERELGAAITTADSTYYADSVKGRFTISRDNAKNTVYLQMNSLKPEDTAVYYCAADAYWEYDYWGQGTQVTVSS | low polyreactivity
QDQLVESGGGLVQAGGSLRLSCAASGFIFKYYAMGWYRQAPGKVRELVAVISISGGSTYYADSVKGRLTISRDNAKNTVYLQMNSLKPEDTAVYYCNVYWRRTSTLAFDYCGQGTQVTVSS | high polyreactivity
QVHLVESGGGLVQAGVSLRLSCAASGRIFEENAMGWYRQAPGKERELVAAITYSGGSTYYADSVKGRFTISRDNAKNTVYLQMNSLKPEDTAVYYCAATVDLVYIDYDYWGQGTQVTVSS | low polyreactivity
QVQLEESGGGLVQAGGSLSLTCAASGRTFFTYAMGWYRQAPGKERELVAAIRWTGGRTTYADSVKARFSISRDNAKNTVYLQMISLKPEDTAVYYCAARVGRTYASYSTGNYYWGQGTQVTVSS | high polyreactivity
QVQLVESGGGLVQAGGSLRLSCAASGSILQPNAMGWYRQAPGKERELVAAISWSGDNTYYADSVKGRFTISRDNAKNTVYLQMNSLKPEDTAVYYCATDADIYFQEYDYWGQGTQVTVSS | low polyreactivity

Sequence | polyreactivity (PSR sort gate)
QVQLVESGGGLVQAGGSLRLSCAASGSTFSYNAMGWYRQAPGKERELVAAIDRSVSTNYADSVKGRFTISRDNAKNTVYLQMNSLKPEDTAVYYCNARHPTDDIVIYDYWGQGTQVTVSS | low polyreactivity
QVQLVESGGGLVQAGGSLRLSCAASGSTLTLYAMGWYRQARGKERELVAAIDWTGGSTYYADSVKGRFTISRDNAKNTVYLQMNSLKPEDTAVYYCAAHSFTEGYWYEYWGQGTQVTVSS | high polyreactivity
QVQLVESGGGLVQAGGSLRLSCAASGSIIHTNTMGWYRQAPGKERELVAAISGGSTYYADSVKGRFTISRDNAKNTVYLQMNSLKPEDTAVYYCAAGWSVWYQDFDYWGQGSQVTVSS | high polyreactivity
QFQLVEAGGGLVQAGGSLRLSCAASGRIFTYYAMGWYSQAPGKERELVAAITGSGGSTYYADSVKGRFTISRDNAKTTVYLQMISLKPEDTAVYYCARTDRRLGAHQGDYWGQGTQVTVSS | high polyreactivity
QVQLVESGGGLVQAGGSLRLSCAASGFTFWYYAMGWYRQAPGKERELVAAITRGGNTNYADSVKGRFTISRDNAKNTVYLQMNSLKPEDTAVYYCAVRFSAPGYYYWGQGTQVTVSS | high polyreactivity
QVQLVESGGGLVQAGGSLRLSWAASGRIPYNAMGWYRQAPGKERELVAAISRSGTRTYYADSVKGRFTISRDNAKNTVFFQMNSLKPEDTAVYYCAAEYTRSFYIYYRFGYWVQGTQVTVSS | high polyreactivity
QVQLVESGGGLVQAGGSLRLSCAASGSIRYYAMGWYRQAPVKEREFVAAISRRGSSTNYADSVKGRFTISRDNAKNTVYLQMNSLKPDDTAVYYCARGLDVISYGYDYWGQGTQVTVSS | high polyreactivity
QVQLQESGGGLVLAGGSLRLSCSASGNISVYGSMGWYRQAPGKEREFVATIAPGTNTNYADSVKDRFTISRDNAKNTVYLQMNSLKPEDTAVYYCAARHPSSAYWVGYYWYDYWGQGTQVTVSS | low polyreactivity
QVQPQESGGGLVQAGGSLRLSCAASGTIFAFQTMGWYRQAPGKERELVASITYGSSTNYADSVKGRFTFSRDNANITVYVQMNSLKPEDTAVYYCAVPQAQYYYYYWGQGTQVTVSS | high polyreactivity
QVQLVESGGGLVQAGGSLRLSCAASGRTFARNAMGWYRPAPGKERELVAAITGRGGSTHYADSVKGRFTISRDNAKNTVYLKMNSLKPEDTAVYYCAADYRYNRGSTSNKDYDYWGQGTQVTVSS | low polyreactivity
QVQLVESGGGLVQAGGSLRLICAASGRTFKRYVIGWYRQAPRKERELVATITRGGSTTYADSVKGRFTISRDNAKNTVFLQMNSLKPEDTAVYYCIADLYQVYLSDYWGQGTQVTVSS | high polyreactivity
QVQLVESGGGLVQAGGSLRLSCAASGRIFYGYTMGWYRQAPGKERELVARISSSGSTYYADSVKGRFTISRDNAKNTVYLQMNSLKPEDTAVYYCAAVRRRYGYDYWGQGTQVTVSS | high polyreactivity
QVQLVESGGGLVQAGGSLRLSCAASGSTFAFYDMGWYRQAPGKERELVAAISQSDGDTYYADSVKGRFTISRDNAKNTVYLQMNSLKPEDTAVYYCAAETSHNPEYERGSDYWGQGTQVTVSS | low polyreactivity
QGQLVESGGGLVQAGGSLRLSCAASGRTFKYYAMGWYRQAPGQERELVAAISYNGGSTFYADSVKGRFTISRDNAKNTVYLQMNSLKPEDTAVYYCAAVYRYRNRRDYDYWGQGTQVTVSS | high polyreactivity
QVQLVESGGGLVQAGGSLRLSCAASGSIFKIYAMGWYRQAPGKARELVATISINGGSTYYADSVKGRFTISRDNAKNTVYLQMNSLKPEDTAVYDCNKVNEYITSQDDYGGQGTQVTVSS | low polyreactivity
QVQLVESGGGLVQAGGSLRLSCAASGSTFYYYAMGWYRQAPGKERELVAAINSGGRTNYADSVKGRFTISRDNAKNTVYLQMNSLKPEDTAVYYCAKRTYPYGTYRSVWGYDYWGQGTQVTVSS | low polyreactivity
